The values that follow come from the supplement of paper PMC10567573.

To fix the notation:
B1: MIA2 (parent)
chain: SVIEPVQESSFRSRKIAVEDENDL
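Also: lentivirally expressed fusions sorted by FACS into six bins by GFP to DsRed ratio, PSI derived from sequencing read proportions per bin multiplied by bin number.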

The variants in the data set derive from B1. In words: protein stability index of a GFP-peptide fusion (GPS, HEK-293T) (PSI 1-6); higher = more stable. The conditions noted are these: c terminus: a fixed tail appended.
Consider SVIKPVQESSFRSRKIAVEDENDL [E4K], for which the protein stability index was found to be 5.03.

Take SVIMPVQESSFRSRKIAVEDENDL [E4M]: the protein stability index turned out to be 4.9.

As for SVISPVQESSFRSRKIAVEDENDL [E4S], the protein stability index amounted to 5.25.

For the variant SVIRPVQESSFRSRKIAVEDENDL [E4R], the protein stability index amounted to 5.

SVIFPVQESSFRSRKIAVEDENDL [E4F]: the protein stability index was 4.73.

SVIVPVQESSFRSRKIAVEDENDL [E4V]: the protein stability index was 4.71.

Consider SVILPVQESSFRSRKIAVEDENDL [E4L], for which the protein stability index came to 4.62.

In the case of SVIHPVQESSFRSRKIAVEDENDL [E4H], the protein stability index was 4.44.

In the case of SVIAPVQESSFRSRKIAVEDENDL [E4A], the protein stability index was 5.68.

As to SVIYPVQESSFRSRKIAVEDENDL [E4Y], the protein stability index amounted to 4.64.

Regarding SVIQPVQESSFRSRKIAVEDENDL [E4Q], the protein stability index was 4.7.

In the case of SVIPPVQESSFRSRKIAVEDENDL [E4P], the protein stability index was determined as 5.37.

As to SVIDPVQESSFRSRKIAVEDENDL [E4D], the protein stability index is 5.01.

Regarding SVIGPVQESSFRSRKIAVEDENDL [E4G], the protein stability index was found to be 5.01.

With SVIIPVQESSFRSRKIAVEDENDL [E4I], the protein stability index is 4.62.

For SVINPVQESSFRSRKIAVEDENDL [E4N], the protein stability index was 5.21.

Regarding SVIWPVQESSFRSRKIAVEDENDL [E4W], the protein stability index was 3.74.

On to SVITPVQESSFRSRKIAVEDENDL [E4T], for which the protein stability index worked out at 5.35.

Turning to SVICPVQESSFRSRKIAVEDENDL [E4C], the protein stability index was 5.08.

SVNEPVQESSFRSRKIAVEDENDL [I3N]: the protein stability index was determined as 5.61.

With SVYEPVQESSFRSRKIAVEDENDL [I3Y], the protein stability index is 5.42.

With SVVEPVQESSFRSRKIAVEDENDL [I3V], the protein stability index is 5.62.

Consider SVCEPVQESSFRSRKIAVEDENDL [I3C], for which the protein stability index is 5.5.

SVEEPVQESSFRSRKIAVEDENDL [I3E]: the protein stability index was 5.61.

As to SVHEPVQESSFRSRKIAVEDENDL [I3H], the protein stability index came to 4.67.

As to SVKEPVQESSFRSRKIAVEDENDL [I3K], the protein stability index turned out to be 4.92.

For the variant SVAEPVQESSFRSRKIAVEDENDL [I3A], the protein stability index came to 5.71.

SVWEPVQESSFRSRKIAVEDENDL [I3W]: the protein stability index worked out at 5.13.

Regarding SVREPVQESSFRSRKIAVEDENDL [I3R], the protein stability index turned out to be 5.59.

As to SVSEPVQESSFRSRKIAVEDENDL [I3S], the protein stability index stood at 4.84.

Consider SVGEPVQESSFRSRKIAVEDENDL [I3G], for which the protein stability index was found to be 5.73.

In the case of SVQEPVQESSFRSRKIAVEDENDL [I3Q], the protein stability index stood at 4.57.

For the variant SVDEPVQESSFRSRKIAVEDENDL [I3D], the protein stability index turned out to be 5.9.

As to SVTEPVQESSFRSRKIAVEDENDL [I3T], the protein stability index was 5.6.

For the variant SVFEPVQESSFRSRKIAVEDENDL [I3F], the protein stability index is 5.32.

As to SVPEPVQESSFRSRKIAVEDENDL [I3P], the protein stability index turned out to be 5.13.

As to SVLEPVQESSFRSRKIAVEDENDL [I3L], the protein stability index is 5.59.

As to SVMEPVQESSFRSRKIAVEDENDL [I3M], the protein stability index is 5.44.

Turning to SVIEPVPESSFRSRKIAVEDENDL [Q7P], the protein stability index was 5.49.

Consider SVIEPVDESSFRSRKIAVEDENDL [Q7D], for which the protein stability index turned out to be 5.25.

As for SVIEPVVESSFRSRKIAVEDENDL [Q7V], the protein stability index was 5.28.

On to SVIEPVMESSFRSRKIAVEDENDL [Q7M], for which the protein stability index was determined as 5.04.

For the variant SVIEPVGESSFRSRKIAVEDENDL [Q7G], the protein stability index is 5.13.

With SVIEPVRESSFRSRKIAVEDENDL [Q7R], the protein stability index is 4.92.

Consider SVIEPVNESSFRSRKIAVEDENDL [Q7N], for which the protein stability index came to 4.82.

For SVIEPVWESSFRSRKIAVEDENDL [Q7W], the protein stability index came to 5.13.

For the variant SVIEPVFESSFRSRKIAVEDENDL [Q7F], the protein stability index worked out at 4.46.

Regarding SVIEPVHESSFRSRKIAVEDENDL [Q7H], the protein stability index was 5.34.

Consider SVIEPVIESSFRSRKIAVEDENDL [Q7I], for which the protein stability index was determined as 4.93.

As to SVIEPVAESSFRSRKIAVEDENDL [Q7A], the protein stability index was 4.21.

SVIEPVEESSFRSRKIAVEDENDL [Q7E]: the protein stability index came to 5.25.

In the case of SVIEPVCESSFRSRKIAVEDENDL [Q7C], the protein stability index was found to be 3.93.

As to SVIEPVTESSFRSRKIAVEDENDL [Q7T], the protein stability index came to 5.32.

On to SVIEPVLESSFRSRKIAVEDENDL [Q7L], for which the protein stability index was determined as 5.29.

SVIEPVKESSFRSRKIAVEDENDL [Q7K]: the protein stability index was 4.98.

Take SVIEPVSESSFRSRKIAVEDENDL [Q7S]: the protein stability index was 5.46.

Turning to SVIEPVYESSFRSRKIAVEDENDL [Q7Y], the protein stability index was 5.21.

For the variant SVIEKVQESSFRSRKIAVEDENDL [P5K], the protein stability index was 4.38.

Consider SVIEHVQESSFRSRKIAVEDENDL [P5H], for which the protein stability index worked out at 4.98.

On to SVIEIVQESSFRSRKIAVEDENDL [P5I], for which the protein stability index was found to be 3.56.

For the variant SVIEGVQESSFRSRKIAVEDENDL [P5G], the protein stability index was 4.65.

For SVIERVQESSFRSRKIAVEDENDL [P5R], the protein stability index was found to be 5.13.

Regarding SVIENVQESSFRSRKIAVEDENDL [P5N], the protein stability index was determined as 5.01.

Turning to SVIECVQESSFRSRKIAVEDENDL [P5C], the protein stability index was 4.74.

Take SVIEFVQESSFRSRKIAVEDENDL [P5F]: the protein stability index was 3.31.

Regarding SVIEYVQESSFRSRKIAVEDENDL [P5Y], the protein stability index amounted to 3.78.

In the case of SVIEEVQESSFRSRKIAVEDENDL [P5E], the protein stability index was determined as 4.79.

With SVIEDVQESSFRSRKIAVEDENDL [P5D], the protein stability index is 4.88.

Take SVIESVQESSFRSRKIAVEDENDL [P5S]: the protein stability index turned out to be 5.03.

For SVIETVQESSFRSRKIAVEDENDL [P5T], the protein stability index is 5.3.

For SVIEAVQESSFRSRKIAVEDENDL [P5A], the protein stability index was 4.3.

As to SVIEQVQESSFRSRKIAVEDENDL [P5Q], the protein stability index was determined as 5.26.

Regarding SVIELVQESSFRSRKIAVEDENDL [P5L], the protein stability index stood at 3.56.

Take SVIEWVQESSFRSRKIAVEDENDL [P5W]: the protein stability index was 3.49.

With SVIEVVQESSFRSRKIAVEDENDL [P5V], the protein stability index came out at 4.95.

Take SVIEMVQESSFRSRKIAVEDENDL [P5M]: the protein stability index was found to be 4.14.

Take SVIEPIQESSFRSRKIAVEDENDL [V6I]: the protein stability index is 5.34.

For the variant SVIEPQQESSFRSRKIAVEDENDL [V6Q], the protein stability index is 5.37.

For SVIEPHQESSFRSRKIAVEDENDL [V6H], the protein stability index is 5.48.

Take SVIEPYQESSFRSRKIAVEDENDL [V6Y]: the protein stability index amounted to 4.91.

Regarding SVIEPWQESSFRSRKIAVEDENDL [V6W], the protein stability index came out at 4.53.

Regarding SVIEPFQESSFRSRKIAVEDENDL [V6F], the protein stability index is 4.94.

With SVIEPTQESSFRSRKIAVEDENDL [V6T], the protein stability index stood at 5.39.

As to SVIEPKQESSFRSRKIAVEDENDL [V6K], the protein stability index came to 5.62.

On to SVIEPLQESSFRSRKIAVEDENDL [V6L], for which the protein stability index stood at 5.16.

SVIEPMQESSFRSRKIAVEDENDL [V6M]: the protein stability index was 5.46.

As for SVIEPEQESSFRSRKIAVEDENDL [V6E], the protein stability index turned out to be 5.76.

For the variant SVIEPNQESSFRSRKIAVEDENDL [V6N], the protein stability index was found to be 4.92.

Regarding SVIEPPQESSFRSRKIAVEDENDL [V6P], the protein stability index was 5.18.

Consider SVIEPDQESSFRSRKIAVEDENDL [V6D], for which the protein stability index was 5.65.

As for SVIEPCQESSFRSRKIAVEDENDL [V6C], the protein stability index came to 5.66.

On to SVIEPAQESSFRSRKIAVEDENDL [V6A], for which the protein stability index is 5.31.

On to SVIEPRQESSFRSRKIAVEDENDL [V6R], for which the protein stability index was found to be 5.27.

Regarding SVIEPSQESSFRSRKIAVEDENDL [V6S], the protein stability index turned out to be 5.27.
